# Measured values from the supplement of paper PMC12764529.
# ± gives the half width of the 95% confidence interval.
# Key:
# [1] = folding stability dG unfold from chymotrypsin proteolysis; higher = more stable
# How it was run: (§1)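 Digests were run with trypsin and chymotrypsin at 11 concentrations in threefold dilutions, plus a no-protease condition, on designed mini-proteins in a PA-tagged cDNA display construct. The mini-proteins were under 80 residues, had no cysteine, and were kept only when AlphaFold2 dimer inter-PAE was above 15. After sequencing, Bayesian fitting of the counts gave K50, from which unfolding free energy was derived against a sequence-predicted unfolded-state K50 and a shared folded-state K50, per protease or combined.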
# [2] = folding stability dG unfold (combined trypsin and chymotrypsin); higher = more stable
# How it was run: as §1
# [3] = folding stability dG unfold from trypsin proteolysis; higher = more stable
# How it was run: as §1
Sequence,folding stability dG unfold [1],folding stability dG unfold [2],folding stability dG unfold [3]
SAGGSAGGPNIRIIIKPDPENGTLKIWFVHPEPGRIQKYEFNMNGKWKIKEPVGPMKPGDPGLLSAGGSAGG [r6_149_TrROS],1.52 ± 0.33 kcal/mol,1.33 ± 0.34 kcal/mol,0.668 ± 0.16 kcal/mol
SAGGSAGGPPDIVTLPIWIGGLKVEIMVYPDGSVTIMFRFPDWYYMITFPLKNGKIEIEWVPLKSAGGSAGG [r6_555_TrROS],3.54 ± 0.1 kcal/mol,3.35 ± 0.22 kcal/mol,3.16 ± 0.11 kcal/mol
SAGGSAGGPSPNQPERQQVQVEAKIRFPDPNGKEWTIEITAYGSVGDARDAARSLAREIKNGKISAGGSAGG [r6_944_TrROS],-0.782 ± 0.49 kcal/mol,-0.484 ± 0.16 kcal/mol,-0.494 ± 0.17 kcal/mol
SAGGSAGGPSYTIQFPYPPGMPPWRLQKLLEEAGYPPPEIEYNPKNGSHWITFSPEVRDAFKELSAGGSAGG [r6_307_TrROS],0.845 ± 0.17 kcal/mol,0.676 ± 0.21 kcal/mol,0.476 ± 0.1 kcal/mol
SAGGSAGGPVITFPWNDIPELLERARENGDPEYYIRVSPDDPGNFTIMPPEEAEENGMPVIPLDSAGGSAGG [r6_710_TrROS],-0.656 ± 0.46 kcal/mol,-0.668 ± 0.33 kcal/mol,-0.976 ± 0.45 kcal/mol
SAGGSAGGPVSVDPSTGTVTITVPPGTATPVVEAIAAALGLPVETATTPLPDGTTTVTVTIPAASAGGSAGG [r6_419_JUSTAS],0.816 ± 0.1 kcal/mol,0.844 ± 0.22 kcal/mol,0.733 ± 0.1 kcal/mol
SAGGSAGGRFTVQFRVPGTLEEAREKAEEIAENLPPNFKDVEVDIEPHPKNGWIRVEVQIKMKKSAGGSAGG [r6_164_TrROS],1.07 ± 0.16 kcal/mol,1.01 ± 0.31 kcal/mol,0.991 ± 0.16 kcal/mol
SAGGSAGGRVVLSAEEIEKLKPGDEIELLVRDKETGEWRRVKARVVRIERVGDRVYVEIEIEPESAGGSAGG [r6_753_TrROS_Hall],4.19 ± 0.057 kcal/mol,4.29 ± 0.12 kcal/mol,4.53 ± 0.25 kcal/mol
SAGGSAGGRWYIMIEIRFPGNGRQFSFMIPIPPGDEVDIKLDELAEWFGFPNVKVDIQVMPLEKSAGGSAGG [r6_722_TrROS],4.75 ± 0.12 kcal/mol,4.45 ± 0.18 kcal/mol,3.41 ± 0.3 kcal/mol
SAGGSAGGSAAEVEVETLELEIDGVKITVTRVRNADGELLYFARIEVRPAPPPPPVSLEDLSAGGSAGGSAG [r3_68_TrROS_Hall],3.25 ± 0.074 kcal/mol,3.23 ± 0.12 kcal/mol,3.02 ± 0.093 kcal/mol
SAGGSAGGSAAKVISVNPETGEVVVEYPDGSVGYFKVKGGVVEEVRSSPVLPVPEDDPLFTSAGGSAGGSAG [r3_406_TrMRF],1.2 ± 0.088 kcal/mol,1.15 ± 0.077 kcal/mol,1.05 ± 0.032 kcal/mol
SAGGSAGGSAAMTVSEVSSSPDPSSDYLSFEVRTTETVKVPGTKAPVTTTVTTTPTKVSKLLSAGGSAGGSA [r18_41_JUSTAS],-0.177 ± 0.25 kcal/mol,-0.111 ± 0.12 kcal/mol,-0.237 ± 0.12 kcal/mol
SAGGSAGGSAANVTREPRFDPSTNLVRTLVRFPDGSVREEILEITKNPDGTLTYKRFERPPSAGGSAGGSAG [r3_474_JUSTAS],1.59 ± 0.18 kcal/mol,1.19 ± 0.14 kcal/mol,0.383 ± 0.12 kcal/mol
SAGGSAGGSAATKQITYTPPGSNRTYSFTATLTEEDPVTGRKLLELTLPDGTPITLPEGELGSAGGSAGGSA [r18_334_JUSTAS],0.0349 ± 0.08 kcal/mol,0.163 ± 0.067 kcal/mol,0.191 ± 0.061 kcal/mol
SAGGSAGGSAAVILPEGTLYFTLPDGSRAAATVDPATGTVHIRLYSPDGVPLAEADIPIDPSAGGSAGGSAG [r3_447_TrMRF],2.26 ± 0.037 kcal/mol,1.83 ± 0.07 kcal/mol,0.947 ± 0.024 kcal/mol
SAGGSAGGSAAYTTPDGTNIILKDPNRPVVSLYKKDPSTNTWTPVSTLPISEVPEEILELLSAGGSAGGSAG [r3_241_JUSTAS],0.583 ± 0.079 kcal/mol,0.599 ± 0.062 kcal/mol,0.426 ± 0.022 kcal/mol
SAGGSAGGSADDEVVEIVDVLPLPNRPVLVVKVRGPDGQTKVYDPATGKWLTPEEAKAALSSAGGSAGGSAG [r3_206_TrMRF],1.98 ± 0.045 kcal/mol,1.61 ± 0.086 kcal/mol,1.09 ± 0.032 kcal/mol
SAGGSAGGSADGNKPPEIKINLEVERHPNGMVEITATLHWPGGKEFPVRIMYNPDKIFIEISAGGSAGGSAG [r3_259_TrROS],3.4 ± 0.16 kcal/mol,3.19 ± 0.14 kcal/mol,2.95 ± 0.31 kcal/mol

Sequence,folding stability dG unfold [1],folding stability dG unfold [2],folding stability dG unfold [3]
SAGGSAGGSADGWVFLVGADVEVEPVPASLLNVPRSVPGEENPYVVKLKEVSFLLVPAKELSAGGSAGGSAG [r3_488_TrMRF],0.734 ± 0.23 kcal/mol,0.185 ± 0.16 kcal/mol,-0.906 ± 0.39 kcal/mol
SAGGSAGGSADIGDPSKIKPKPLHFSFPVKIKLSFEYNGPDGVKKTFSLELTFTVVDKGLGSAGGSAGGSAG [r3_380_TrMRF],4.14 ± 0.21 kcal/mol,3.89 ± 0.44 kcal/mol,3.15 ± 0.2 kcal/mol
SAGGSAGGSADLLEELPGLEVVDIERKGNSVVALFRNKETGELVRVTVDADGNITVEVLPLESAGGSAGGSA [r18_26_TrROS_Hall],4.02 ± 0.072 kcal/mol,3.99 ± 0.11 kcal/mol,3.7 ± 0.1 kcal/mol
SAGGSAGGSADWQKLEYPFPPGMPLDNIKEELRDLFPGKKPTIEIDKIEPHNGQYWIKITVKSAGGSAGGSA [r18_360_TrROS],0.0785 ± 0.15 kcal/mol,0.291 ± 0.075 kcal/mol,0.42 ± 0.047 kcal/mol
SAGGSAGGSAEELLKKLAEELGLEEGDEVTIEVDGKLIKIYFNKDGKIVKVEVYELDPEDLSAGGSAGGSAG [r3_468_TrROS_Hall],3.59 ± 0.087 kcal/mol,3.25 ± 0.079 kcal/mol,2.01 ± 0.11 kcal/mol
SAGGSAGGSAEEVTVTVKIERTTEDGEKVEETITVTVPAEKLDELKKAAEEAGFTVVEVTPSAGGSAGGSAG [r3_453_TrROS_Hall],2.19 ± 0.14 kcal/mol,2.38 ± 0.1 kcal/mol,2.68 ± 0.14 kcal/mol
SAGGSAGGSAEKGIAFILLVTEEGDLEKALETAEELKKELEEKTGKPVEVVVNIFVVEPELFSAGGSAGGSA [r18_515_TrMRF],2.38 ± 0.084 kcal/mol,2.24 ± 0.14 kcal/mol,1.81 ± 0.048 kcal/mol
SAGGSAGGSAEKVITVWIPLPPGQGVDEIAKEIARYLGFPNIKIDNIQYDPEDGWYQITFKLSAGGSAGGSA [r18_481_TrROS],4.163 ± 0.032 kcal/mol,3.97 ± 0.061 kcal/mol,3.48 ± 0.096 kcal/mol
SAGGSAGGSAEPDIEVVVTPVPGPYGPLYYRVEVRIPEAGRTVFTYARLDDPEEIEGIPIESAGGSAGGSAG [r3_432_TrMRF],0.545 ± 0.16 kcal/mol,0.7 ± 0.077 kcal/mol,0.829 ± 0.066 kcal/mol
SAGGSAGGSAEPPEVRIRLEVRLLPDGTLEVTAEIEVDGKTYRITVTVDAKTNEIVSVSIEPSAGGSAGGSA [r18_459_TrROS_Hall],3.89 ± 0.21 kcal/mol,4.3 ± 0.46 kcal/mol,4.44 ± 0.36 kcal/mol
SAGGSAGGSAEPPPLVVVTEVRTITVEIDLDDLSEEEREALENLDTVTITVTRVVVVPREDLSAGGSAGGSA [r18_127_TrROS_Hall],1.39 ± 0.22 kcal/mol,1.84 ± 0.46 kcal/mol,2.42 ± 0.22 kcal/mol
SAGGSAGGSAETVTITLTVPPGASVEEILAALKAKYPDITSVSVERREDGYLKVTVTVRLDSAGGSAGGSAG [r3_371_TrROS_Hall],4.02 ± 0.068 kcal/mol,4.46 ± 0.074 kcal/mol,5.28 ± 0.47 kcal/mol
SAGGSAGGSAEWKPITYWVPPGQSIKEIADDLMDKNPRITDAEMEYDPDGYMKVTLTVRLDSAGGSAGGSAG [r3_371_TrROS],0.505 ± 0.14 kcal/mol,0.552 ± 0.086 kcal/mol,0.493 ± 0.056 kcal/mol
SAGGSAGGSAEYRVVVVPPVPTVLIFVKPDRVYVVDLDPATGRATIRPVNVPPNVLPESLLTSAGGSAGGSA [r18_59_TrMRF],1.67 ± 0.06 kcal/mol,1.52 ± 0.056 kcal/mol,1.27 ± 0.02 kcal/mol
SAGGSAGGSAFKLPPGKKITIFFDPENGNFAIMVPDGNERRVPMPAEELIKLGFPVEIIGPWSAGGSAGGSA [r18_125_TrROS],0.566 ± 0.25 kcal/mol,0.517 ± 0.19 kcal/mol,0.365 ± 0.14 kcal/mol
SAGGSAGGSAFQIEDLKIEKVEFNPDGMVHNELEITLPGGKELEVSIMIDPKKPGKLMIMIVSAGGSAGGSA [r18_97_TrROS],1.42 ± 0.049 kcal/mol,1.66 ± 0.31 kcal/mol,1.98 ± 0.11 kcal/mol
SAGGSAGGSAGAKKLPPGQVALRIEPVTVTVTDEDGKERTVTRIRLVDAATGEEYEFTFPSAGGSAGGSAGG [r17_266_TrROS_Hall],0.531 ± 0.1 kcal/mol,0.744 ± 0.15 kcal/mol,0.829 ± 0.1 kcal/mol
SAGGSAGGSAGAPPDVEEVTVTVTITNPDGSTTTTTVTATPEELAALAAAPGRPTAVSAESAGGSAGGSAGG [r17_313_JUSTAS],0.486 ± 0.015 kcal/mol,0.595 ± 0.17 kcal/mol,0.635 ± 0.072 kcal/mol
